According to patent publication US20030027246A1 (published 2003):
Like-named read-outs stand apart in the source and are kept apart here. One block for each binder: values may come before it.

Experiments:
[1] = molecular target: T1, membrane-bound HLA-A0201 molecule on T2 cells (human); assay: T2 cell HLA-A0201 stabilisation, BB7.2 staining, flow cytometry
T1 construct: whole, on cells; also called human MHC class 1 molecule
Procedure: (§1) Thus, the detection of this specific epitope is indicative of stable membrane-bound HLA-A0201 molecules loaded with peptide.
(§2) T2 cells were propagated in Iscove's complete medium (Iscove's medium supplemented with 10% heat-inactivated bovine serum, 120.0 units per ml of penicillin G sodium, 120 μg per ml of streptomycin sulphate, and 0.35 mg per ml of L-glutamine). The ability of PSMA peptides (Table 1) to bind and stabilize surface HLA-A0201 molecules on T2 cells was determined utilizing a protocol documented in the art (Deng, Y. (1997) J Immunol 158:1507-1515). In essence, 0.5×10⁶ T2 cells were incubated with 125.0 μM of the test peptide in 200.0 μl of serum-free culture medium (Iscove's medium supplemented with 120.0 units per ml of penicillin G sodium, 120.0 μg per ml of streptomycin sulphate and 0.35 mg per ml of L-glutamine) overnight at 37° C. Subsequently, cells were washed twice with Iscove's medium (without bovine serum) to remove free PSMA peptide. To the cell pellet was added 1.0 ml of complete Iscove's medium (supplemented with fetal bovine serum (10% final)) containing 5.0 μg per ml of brefeldin A (Sigma), 12.5 μg per ml of anisomycin (Sigma) and 5.0 μg per ml of cyclohexamide (Sigma). The samples were incubated for 3.0 hr in a 37° C. CO₂ incubator. The cells were subsequently incubated 30 min on ice prior to two washes with ice-cold PBA (phosphate buffered saline (pH 7.2) containing 2.0% bovine serum). 100.0 μl of PBA containing 5.0 μg of monoclonal antibody BB7.2 was added to each test sample. The reaction was allowed to proceed on ice for 45 min. Cells were then washed three times with ice-cold PBA. The binding of BB7.2 was detected via the addition of 100.0 μl of PBA containing 1.0 μg of goat anti-mouse IgG-Fc fluorescein (FITC) conjugate (BETHYL Laboratories Inc.). After a 30 min incubation on ice, cells were twice washed with ice-cold PBA, and twice with ice-cold PBS (pH 7.2). […] Samples were analyzed by Flow Cytometry. Results were expressed in units of Fluorescence Index (FI), calculated by the equation: […]

[2] = molecular target: T1, membrane-bound HLA-A0201 molecule on T2 …; assay: T2 cell HLA-A0201 stabilisation at 125.0 µM peptide, BB7.2 staining, flow cytometry
Procedure: as §1, §2

[3] = molecular target: T1, membrane-bound HLA-A0201 molecule on T2 …; assay: T2 cell HLA-A0201 stabilisation, BB7.2 staining, flow cytometry; remark: listed apart in the source
Procedure: as §2, with “The samples were incubated for 3.0 hr in a 37° C. CO₂ incubator. The cells were subsequently incubated 30 min on ice prior to two washes with ice-cold PBA (phosphate buffered saline (pH 7.2) containing 2.0% bovine serum). 100.0 μl of PBA containing 5.0 μg of monoclonal antibody BB7.2 was added to each test sample. The reaction was allowed to proceed on ice for 45 min. Cells were then washed three times with ice-cold PBA.” left out, “Inc.).” for “Inc.). After a 30 min incubation on ice, cells were twice washed with ice-cold PBA, and twice with ice-cold PBS (pH 7.2).”

B1: CLP-329 (peptide)
peptide: NMKAFLDEL
notes: also called PSMA 57-65
- binding result [1]: no binding

B4: CLP-336 (peptide)
peptide: MMNDQLMFL
notes: also called CPL-336; PSMA 663-671
- Fluorescence Index (FI) [2]: 3.7 FI

B5: CLP-333 (peptide)
peptide: LMYSLVHNL
notes: also called PSMA 469-477
- Fluorescence Index (FI) [2]: 2.7 FI

B6: CLP-326 (peptide)
peptide: LLHETDSAV
notes: also called PSMA 4-12
- Fluorescence Index (FI) [2]: 0.6 FI

More lines, now with the values ahead:

- binding result [1]: no binding
B2: CLP-334 (peptide)
peptide: PMFKYHLTV
notes: also called PSMA 568-576

- binding result [1]: no binding
B3: CLP-331 (peptide)
peptide: NLNGAGDPL
notes: also called PSMA 260-268

- binding result [3]: no binding (tested: 125.0 µM peptide)
B7: CLP-324 (peptide)
peptide: LDSVELAHY
notes: Negative control; also called negative control peptide; PSMA 105-113
